Laboratory results as given in US10323078B2, “Isolated peptides and fragments thereof from fibrinogen for use as drugs, particularly in skin inflammatory diseases” (Universite Paris Descartes, priority 2015, dated 2019).

Tests used:
Pfg [1] = test: Binding of biotinylated Pfg to immobilized fibrinogen (polystyrene plate); set-up: species or system Propionibacterium acnes; details: various quantities of fibrinogen immobilized; biotinylated Pfg 0.1 μg/ml, 2 h at 23° C.
Protocol: FIG. 5: Binding of P. acnes surface proteins to fibrinogen. (A) Various quantities of human fibrinogen (hFg) and bovine fibrinogen (bFg) were immobilized onto a 96-well polystyrene plate at 4° C. for 18 h and incubated with biotinylated Pfg at 0.1 μg/ml for 2 h at 23° C. Bovine serum albumin (BSA) was used as negative control. Bound material was detected by using the HRP-streptavidin conjugate. Peroxidase activity was measured by using the ABTS substrate at 405 nm. Proteins (10 μg per lane) were separated by 10% SDS-PAGE and detected by (B) Commassie blue staining, and transferred to nitrocellulose membrane and incubated with (C) HRP-streptavidine alone, and (D) biotinylated Pfg (0.1 μg/ml). Lanes 1: molecular weight standards. Lane 2: BSA. […]
To characterize the interaction between P. acnes and ligands, we used biotinylated molecules in quantitative and qualitative assays. […] For quantitative analysis, unlabeled protein were diluted into 50 mM carbonate-bicarbonate, pH 9.6 buffer to yield a protein concentration ranging from 0.01 to 50 μg/ml, and then immobilized to 96-well polystyrene plates at 4° C. overnight. […] After washing, bound peroxidase was detected using the chromogenic peroxidase substrate ABTS. […] Binding activity was detected by incubating the membranes with 20 ml of PBT containing biotinylated proteins (0.1 μg/ml) for 2 h at room temperature followed by three washes with PBT. […]

Pfg [2] = test: Western ligand blot with biotinylated Pfg; assay type: binding, Propionibacterium acnes; details: 10 μg per lane, 10% SDS-PAGE; biotinylated Pfg 0.1 μg/ml
Protocol: FIG. 5: Binding of P. acnes surface proteins to fibrinogen. (A) Various quantities of human fibrinogen (hFg) and bovine fibrinogen (bFg) were immobilized onto a 96-well polystyrene plate at 4° C. for 18 h and incubated with biotinylated Pfg at 0.1 μg/ml for 2 h at 23° C. Bovine serum albumin (BSA) was used as negative control. Bound material was detected by using the HRP-streptavidin conjugate. Peroxidase activity was measured by using the ABTS substrate at 405 nm. Proteins (10 μg per lane) were separated by 10% SDS-PAGE and detected by (B) Commassie blue staining, and transferred to nitrocellulose membrane and incubated with (C) HRP-streptavidine alone, and (D) biotinylated Pfg (0.1 μg/ml). Lanes 1: molecular weight standards. Lane 2: BSA. Lane 3: hFg. Lane 4: bFg.
FIG. 8: Cloning of Bß human fibrinogen fragments and binding with Pfg. (A) Cloning and expression of recombinant human Bß fibrinogen fragments Fg1, Fg2, Fg3 and Fg4. Fibrinogen fragments were obtained by RT-PCR and expression plasmids were constructed as described in Materials and Methods. (B) GST-fused proteins were expressed in E. coli, fractionated by 12.5% SDS-PAGE, and detected by Coomassie blue staining (B), and incubated with biotinylated Pfg (0.1 μg/ml) as described in Materials and Methods (C).
To characterize the interaction between P. acnes and ligands, we used biotinylated molecules in quantitative and qualitative assays. In a first set of assays, ECM ligands (fibrinogen, collagens I, IV, VI and VIII) were used as labelled proteins with biotin. In a second set of assays, P. acnes surface proteins (total extract and purified Pfg) were biotinylated. For quantitative analysis, unlabeled protein were diluted into 50 mM carbonate-bicarbonate, pH 9.6 buffer to yield a protein concentration ranging from 0.01 to 50 μg/ml, and then immobilized to 96-well polystyrene plates at 4° C. overnight. The wells were rinsed three times with 0.2 ml of PBS containing 0.05% Tween-20 (PBS-Tween). Biotinylated proteins (0.01 to 16 μg/ml in PBS-Tween) were added to the wells and incubated at room temperature for 1 h. The wells were rinsed three times with 0.2 ml of PBS-Tween. Peroxidase conjugated to streptavidin (0.5 μg/ml in PBS-Tween) was added and incubated for 30 min at room temperature. After washing, bound peroxidase was detected using the chromogenic peroxidase substrate ABTS. For qualitative analysis, unlabelled protein (10-75 μg per lane) were separated by SDS-PAGE and then transferred to nitrocellulose membranes (0.45 μm pore size), as described previously (Towbin, 1979). Membranes were then saturated overnight at 4° C. in PBS containing 5% BSA, 0.05% Tween-20 (PBT buffer). Binding activity was detected by incubating the membranes with 20 ml of PBT containing biotinylated proteins (0.1 μg/ml) for 2 h at room temperature followed by three washes with PBT. Bound biotinylated proteins were detected by incubating the membrane with peroxidase conjugated to streptavidin (0.5 μg/ml in PBT) for 1 h at room temperature. After washing, bound peroxidase activity was detected using 3,3′-diaminobenzidine in the presence of CoCl2 and H2O2 (Harlow and Lane, 1988).
Since it was shown that Pfg is recognized by fibrinogen, this ECM ligand was used to analyze the nature of this interaction. First it was analyzed the ability of fibrinogen to be recognized by purified Pfg (FIG. 5). Human and bovine Fg (hFg, bFg) were immobilized to polysterene plate and the binding activity of biotinylated Pfg was measured. […] It has been shown that fibrinogen is a glycoprotein containing both N- and O-linked glycans (Debeire 1985; Reid Townsend 1982; L'Hôte 1996). […] In parallel, deglycosylation was assessed by visualization of a shift in the mobility after electrophoresis separation and Coomassie blue staining (FIG. 6A, lanes 3 and 5) and also by using the RCA-I plant lectin able to recognize ß-linked galactosyl residues in terminal position (FIG. 6C) (Green, 1987). […]

P. acnes 6919 strain = test: Adhesion assay, biotinylated P. acnes binding to HaCaT keratinocytes; assay type: cell-based, Propionibacterium acnes; details: P. acnes 6919 pre-treated with whole fibrinogen 0.01 to 0.5 mM, 1 h at 37° C.
Protocol: FIG. 12: Dose-dependent inhibition of P. acnes binding to keratinocytes. Biotinylated P. acnes 6919 strain at concentrations adjusted to 0.1 of absorbance at 600 nm was pre-treated with whole human (dark gray bar) and bovine (light gray bar) fibrinogen at the concentrations ranging from 0.01 to 0.5 mM and incubated 1 h at 37° C. with the human HaCaT keratinocyte cell line. After removal of unbound bacteria, adhesion activity was detected at 410 nm. Data are means±S.D. of three separate experiments. Statistical significance is indicated by * (P<0.05), ** (P<0.01), *** (P<0.001), and **** (P<0.0001), respectively.
The bacterial suspension was adjusted at 600 nm to the desired concentration, pretreated with peptides Fg1 and Fg2 at the final concentration ranging from 0.87 to 7 μM for 1 h at 37° C. and deposited on the previously saturated cells with a solution of PBS SVF 2% for 2 h. After incubation for 1 h at 37° C., unbound bacteria are removed by 3 washes with PBS and fixed bacteria are detected by a streptavidin-peroxidase solution of 0.5 μg/ml for 30 min.
Whole P. acnes bacteria are labelled by biotinylation, pre-treated or not with the peptides and contacted with the various cell lines. After removal of the unfixed bacteria, the adhesion activity was measured spectrophotometrically by using the streptavidin-peroxidase conjugate and a chromogenic substrate. […]

B1: bovine fibrinogen: purified commercial bovine fibrinogen (Sigma) (protein)
chain 1: EDGSDPPSGDFLTEGGGVRGPRLVERQQSACKETGWPFCSDEDWNTKCPSGCRMKGLIDEVDQDFTSRINKLRDSLFNYQKNSKDSNTLTKNIVELMRGDFAKANNNDNTFKQISEDLRSRIEILRRKVIEQVQRIKVLQKNVRDQLVDMKRLEVDIDIKIRSCKGSCSRALEHKVDLEDYKNQQKQLEQVIAINLLPSRDIQYLPLIKMSTITGPVPREFKSQLQEAPLEWKALLEMQQTKMVLETFGGDGHARGDSVSQGTGLAPGSPRKPGTSSIGNVNPGSYGPGSSGTWNPGRPEPGSAGTWNPGRPEPGSAGTWNPGRPEPGSAGTWNPGRPEPGSAGTWNPGRPEPGSAGTWNTGSSGSSSFRPDSSGHGNIRPSSPDWGTFREEGSVSSGTKQEFHTGKLVTTKGDKELLIDNEKVTSGHTTTTRRSCSKVITKTVTNADGRTETTKEVVKSEDGSDCGDADFDWHHTFPSRGNLDDFFHRDKDDFFTRSSHEFDGRTGLAPEFAALGESGSSSSKTSTHSKQFVSSSTTVNRGGSAIESKHFKMEDEAESLEDLGFKGAHGTQKGHTKARPARGIHTSPLGEPSLTP
chain 2: QFPTDYDEGQDDRPKVGLGARGHRPYDKKKEEAPSLRPVPPPISGGGYRARPATATVGQKKVERKPPDADGCLHADPDLGVLCPTGCKLQDTLVRQERPIRKSIEDLRNTVDSVSRTSSSTFQYITLLKNMWKGRQNQVQDNENVVNEYSSHLEKHQLYIDETVKNNIPTKLRVLRSILENLRSKIQKLESDVSTQMEYCRTPCTVTCNIPVVSGKECEKIIRNEGETSEMYLIQPEDSSKPYRVYCDMKTEKGGWTVIQNRQDGSVDFGRKWDPYKQGFGNIATNAEGKKYCGVPGEYWLGNDRISQLTNMGPTKLLIEMEDWKGDKVTALYEGFTVQNEANKYQLSVSKYKGTAGNALIEGASQLVGENRTMTIHNSMFFSTYDRDNDGWKTTDPRKQCSKEDGGGWWYNRCHAANPNGRYYWGGAYTWDMAKHGTDDGVVWMNWQGSWYSMKKMSMKIRPYFPEQ
chain 3: YVATRDNCCILDERFGSYCPTTCGIADFLNNYQTSVDKDLRTLEGILYQVENKTSEARELVKAIQISYNPDQPSKPNNIESATKNSKSMMEEIMKYETLISTHESTIRFLQEVYNSNSQKIVNLRDKVVQLEANCQEPCQDTVKIHDVTGRDCQDVANKGAKESGLYFIRPLKAKQFLVYCEIDGSGNGWTVFQKRLDGSLDFKKNWIQYKEGFGHLSPTGTGNTEFWLGNEKIHLISTQSSIPYVLRIQLEDWNGRTSTADYASFKVTGENDKYRLTYAYFIGGDAGDAFDGYDFGDDSSDKFFTSHNGMQFSTWDSDNDKYDGNCAEQVGIGWWMNKCHAGHLNGVYYQGGTYSKTSTPNGYDNGIIWATWKSRWYSMKKTTMKIIPLNRLAIGEGQQHQLGGAKQVGVEHHVEIEYD
Binding of biotinylated Pfg to immobilized fibrinogen (Pfg [1]): dose-dependent | Recognition by biotinylated Pfg after electrophoretic separation of fibrinogen (Pfg [2]): recognized by Pfg | Inhibition of adhesion of P. acnes to keratinocytes (P. acnes 6919 strain): able to inhibit the adhesion
